Patent publication US20230220589A1

How the values were obtained:
[1] = biological target: M44-modified I NTAA target peptides (M44-I-P2-peptide); experiment: encoding assay; P2 H
[2] = biological target: M44-modified W NTAA target peptides; experiment: encoding assay; P2 H
[3] = biological target: M44-modified H NTAA target peptides; experiment: encoding assay; P2 H
[4] = biological target: M44-modified Y NTAA target peptides (M44-Y-P2-peptide); experiment: encoding assay; P2 H
[5] = biological target: M44-modified L NTAA target peptides (M44-L-P2-peptide); experiment: encoding assay; P2 H
[6] = biological target: M44-modified M NTAA target peptides; experiment: encoding assay; P2 H
[7] = biological target: M44-modified V NTAA target peptides; experiment: encoding assay; P2 H
[8] = biological target: M44-modified Q NTAA target peptides; experiment: encoding assay; P2 H
[9] = biological target: M44-modified D NTAA target peptides; experiment: encoding assay; P2 H
[10] = biological target: M44-modified N NTAA target peptides; experiment: encoding assay; P2 H
[11] = biological target: M44-modified T NTAA target peptides; experiment: encoding assay; P2 H
[12] = biological target: M44-modified A NTAA target peptides (M44-A-P2-peptide); experiment: encoding assay; P2 H
[13] = biological target: M44-modified F NTAA target peptides (M44-F-P2-peptide); experiment: encoding assay; P2 H
[14] = biological target: M44-modified P NTAA target peptides; experiment: encoding assay; P2 H
[15] = biological target: M44-modified G NTAA target peptides (M44-G-P2-peptide); experiment: encoding assay; P2 L
[16] = biological target: M44-modified I NTAA target peptides (M44-I-P2-peptide); experiment: encoding assay; P2 L
[17] = biological target: M44-modified W NTAA target peptides; experiment: encoding assay; P2 L
[18] = biological target: M44-modified H NTAA target peptides; experiment: encoding assay; P2 L
[19] = biological target: M44-modified Y NTAA target peptides (M44-Y-P2-peptide); experiment: encoding assay; P2 L
[20] = biological target: M44-modified L NTAA target peptides (M44-L-P2-peptide); experiment: encoding assay; P2 L
[21] = biological target: M44-modified M NTAA target peptides; experiment: encoding assay; P2 L
[22] = biological target: M44-modified V NTAA target peptides; experiment: encoding assay; P2 L
[23] = biological target: M44-modified S NTAA target peptides; experiment: encoding assay; P2 L
[24] = biological target: M44-modified Q NTAA target peptides; experiment: encoding assay; P2 L
[25] = biological target: M44-modified D NTAA target peptides; experiment: encoding assay; P2 L
[26] = biological target: M44-modified N NTAA target peptides; experiment: encoding assay; P2 L
[27] = biological target: M44-modified T NTAA target peptides; experiment: encoding assay; P2 L
[28] = biological target: M44-modified A NTAA target peptides (M44-A-P2-peptide); experiment: encoding assay; P2 L
[29] = biological target: M44-modified F NTAA target peptides (M44-F-P2-peptide); experiment: encoding assay; P2 L
[30] = biological target: M44-modified P NTAA target peptides; experiment: encoding assay; P2 L
[31] = biological target: M44-modified E NTAA target peptides; experiment: encoding assay; P2 L
[32] = biological target: M44-modified G NTAA target peptides (M44-G-P2-peptide); experiment: encoding assay; P2 T
[33] = biological target: M44-modified I NTAA target peptides (M44-I-P2-peptide); experiment: encoding assay; P2 T
[34] = biological target: M44-modified Y NTAA target peptides (M44-Y-P2-peptide); experiment: encoding assay; P2 T
[35] = biological target: M44-modified L NTAA target peptides (M44-L-P2-peptide); experiment: encoding assay; P2 T
[36] = biological target: M44-modified V NTAA target peptides; experiment: encoding assay; P2 T
[37] = biological target: M44-modified T NTAA target peptides; experiment: encoding assay; P2 T
[38] = biological target: M44-modified E NTAA target peptides; experiment: encoding assay; P2 T
[39] = biological target: M44-modified I NTAA target peptides (M44-I-P2-peptide); experiment: encoding assay; P2 N
[40] = biological target: M44-modified W NTAA target peptides; experiment: encoding assay; P2 N
[41] = biological target: M44-modified H NTAA target peptides; experiment: encoding assay; P2 N
[42] = biological target: M44-modified Y NTAA target peptides (M44-Y-P2-peptide); experiment: encoding assay; P2 N
[43] = biological target: M44-modified L NTAA target peptides (M44-L-P2-peptide); experiment: encoding assay; P2 N
[44] = biological target: M44-modified M NTAA target peptides; experiment: encoding assay; P2 N
[45] = biological target: M44-modified V NTAA target peptides; experiment: encoding assay; P2 N
[46] = biological target: M44-modified S NTAA target peptides; experiment: encoding assay; P2 N
[47] = biological target: M44-modified Q NTAA target peptides; experiment: encoding assay; P2 N
[48] = biological target: M44-modified D NTAA target peptides; experiment: encoding assay; P2 N
[49] = biological target: M44-modified N NTAA target peptides; experiment: encoding assay; P2 N
[50] = biological target: M44-modified F NTAA target peptides (M44-F-P2-peptide); experiment: encoding assay; P2 N
[51] = biological target: M44-modified E NTAA target peptides; experiment: encoding assay; P2 N
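Further: fraction of recording tags encoded.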

B1: engineered M44-A binder (SEQ ID NO: 42) (designed binder, not shown: small tags and cut ends; large carriers)
chain: QVSVQPNFQQDKFLGRWFVAGLASNSSWDREKVAALSGAKMVVAPATDGGLNVTRTMLRKNQCETYTGLLQPAGSLGSYSWRSPHPGSTGSESVVETDYDQYALVYGQGSKGPGEDLRAAALWSRTQTPRAELKEKFTAFSKAQGFTEDTIVFLPQTDKCMTEQ
- encoding yield [1]: 0.04
- encoding yield [2]: 0.03
- encoding yield [3]: 0.02
- encoding yield [4]: 0.07
- encoding yield [5]: 0.03
- encoding yield [6]: 0.04
- encoding yield [7]: 0.03
- encoding yield [8]: 0.05
- encoding yield [9]: 0.04
- encoding yield [10]: 0.05
- encoding yield [11]: 0.04
- encoding yield [12]: 0.05
- encoding yield [13]: 0.02
- encoding yield [14]: 0.05
- encoding yield [15]: 0.16
- encoding yield [16]: 0.03
- encoding yield [17]: 0.02
- encoding yield [18]: 0.03
- encoding yield [19]: 0.07
- encoding yield [20]: 0.18
- encoding yield [21]: 0.04
- encoding yield [22]: 0.15
- encoding yield [23]: 0.27
- encoding yield [24]: 0.04
- encoding yield [25]: 0.02
- encoding yield [26]: 0.05
- encoding yield [27]: 0.11
- encoding yield [28]: 0.37
- encoding yield [29]: 0.02
- encoding yield [30]: 0.02
- encoding yield [31]: 0.03
- encoding yield [32]: 0.07
- encoding yield [33]: 0.05
- encoding yield [34]: 0.05
- encoding yield [35]: 0.05
- encoding yield [36]: 0.05
- encoding yield [37]: 0.1
- encoding yield [38]: 0.01
- encoding yield [39]: 0.03
- encoding yield [40]: 0.01
- encoding yield [41]: 0.03
- encoding yield [42]: 0.05
- encoding yield [43]: 0.04
- encoding yield [44]: 0.02
- encoding yield [45]: 0.08
- encoding yield [46]: 0.05
- encoding yield [47]: 0.04
- encoding yield [48]: 0.02
- encoding yield [49]: 0.05
- encoding yield [50]: 0
- encoding yield [51]: 0.03
